Our source for the EC50 values is patent US20260347491.

In the assay the target is human CD32b (FcgRIIb) (human) (UniProt P31994). The experiment in a line: FACS. For orientation: Flow cytometry measures light scatter and fluorescence of single cells or particles in a stream.
Chain of human CD32b (FcgRIIb) (human) (P31994 46-217): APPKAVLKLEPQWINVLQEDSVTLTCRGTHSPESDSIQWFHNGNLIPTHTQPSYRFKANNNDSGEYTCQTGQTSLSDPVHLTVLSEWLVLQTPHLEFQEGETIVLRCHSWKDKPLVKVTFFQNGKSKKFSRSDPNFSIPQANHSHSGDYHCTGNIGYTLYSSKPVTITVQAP

As for Trastuzumab (full), the EC50 was determined as 14.1 nM. Pertuzumab (full) had a concentration for a half-maximal effect (EC50) of 1.35 nM.

A word on the EC50: it is the concentration that produces a half-maximal response. Lower therefore signals higher potency in that assay.
